Measured values from article PMC6146289, “Combinatorial use of disulfide bridges and native sulfur-SAD phasing for rapid structure determination of coiled-coils” (Bioscience Reports, 2018).

Biological target: the molecule itself
Assay: SEC-MALS; oxidizing conditions: 20 mM Tris-HCl, pH 7.5, 150 mM NaCl, without DTT; S-200 10/30 column; 100 μl at 4 mg/ml injected; 10°C

B1: HsCEP135 82–144 (amino acids 82–144 of human CEP135, centrosomal protein of 135 kDa) (domain or fragment, UniProt Q66GS9 82-144, looked up)
chain: NNELYLELMKLREHSDQHVKELKTSLKKCARETADLKFLNNQYAHKLKLLEKESKAKNERIQQ
notes: coiled-coil fragment with one cysteine (Cys110) and one methionine per monomer; Under oxidizing conditions Cys110 forms a homotypic disulfide bridge between the two chains of the parallel coiled-coil dimer; Calculated molecular weight 7.71 kDa
  stoichiometry N: 2
